# In patent publication US20140242093A1, “METHODS AND COMPOSITIONS FOR MODULATING THE INNATE IMMUNE RESPONSE AND/OR MYOGENESIS IN A MAMMALIAN SUBJECT” (FRED HUTCHINSON CANCER RESEARCH CENTER, priority 2011, published 2014):
# B1: DUX4-s: short splice form of DUX4 (SEQ ID NO:112), keeps the double-homeobox domains, lacks the C-terminal activation domain (protein, listed as Homo sapiens)
# chain: MALPTPSDSTLPAEARGRGRRRRLVWTPSQSEALRACFERNPYPGIATRERLAQAIGIPEPRVQIWFQNERSRQLRQHRRESRPWPGRRGPPEGRRKRTAVTGSQTALLLRAFEKDRFPGIAAREELARETGLPESRIQIWFQNRRARHPGQGGRAPAQV
# Test system: control human primary myoblasts
# Assay: Expression microarray of primary myoblasts transduced with lentivirus carrying DUX4-fl, DUX4-s or GFP
# Experimental: Primary human myoblasts were collected and cultured as previously described (Snider et al., 2010). Primary myoblasts were maintained at or below 70% confluency for proliferation. For differentiation, cells were allowed to reach 95-100% confluency in growth medium. Once confluency was reached, the cells were changed to differentiation medium (F10 media supplemented with 1% horse serum, 10 μg/mL insulin, and 10 μg/mL transferrin, penicillin/streptomycin) and maintained for 4 days. Human RD cells were grown in DMEM in 10% bovine calf serum (Hyclone) and penicillin/streptomycin. The primary myoblasts were transduced with lentivirus carrying DUX-fl, DUX4- or GFP (MOI=15).
# Expression microarrays were performed on the transduced cells at 24 hours after transduction as follows. […] Samples were analyzed by Illumina Human Whole Genome microarrays. Probe intensities were corrected, normalized, and summarized by the Lumi package of Bioconductor (Du et al., 2008). Differentially expressed genes were identified by the LIMMA package of Bioconductor (Wettenhall and Smyth, 2004). Gene set enrichment analysis (GSEA) was performed using the Bioconductor GOstats package (Falcon and Gentleman, 2007).
molecule,measurement,setting,value
B1,PNMA6B expression fc,Refseq XM_001721351.1,−0.2189
same,LOC100133984 expression fc,Refseq XM_001723079.1,−0.03265
same,LOC649330 expression fc,Refseq XM_001723218.1,−0.2697
same,LOC100128202 expression fc,Refseq XM_001723719.1,−0.1157
same,LOC100130311 expression fc,Refseq XM_001724111.1,0.1436
same,LOC100131539 expression fc,Refseq XM_001724873.1,0.06524
same,LOC100134006 expression fc,Refseq XM_001725030.1,−0.02089
same,LOC730167 expression fc,Refseq XM_001726158.1,1.257
same,LOC100129681 expression fc,"Refseq XM_001726834.1, cultured human skeletal muscle",0.5189
same,LOC651709 expression fc,Refseq XM_001732813.1,0.09445
same,LOC727828 expression fc,Refseq XR_015137.1,−0.00556
same,LOC728060 fc,Refseq XR_015272.2,0.2553
same,LOC732393 expression fc,Refseq XR_015873.1,0.03683
same,MGC40489 expression fc,Refseq XR_016048.1,−0.4604
same,LOC643263 expression fc,Refseq XR_016355.1,−0.133
same,LOC441081 expression fc,Refseq XR_017029.1,0.06023
same,LOC647366 expression fc,Refseq XR_018122.1,−0.003339
same,LOC440041 expression fc,Refseq XR_018122.2,0.021
same,LOC647827 expression fc,Refseq XR_018213.1,−0.05208
same,LOC399988 expression fc,Refseq XR_018287.2,−0.4131
same,LOC650215 fc,Refseq XR_018889.1,0.6386
same,fc of RBMS2P (expression array),Refseq XR_019556.2,1.313
same,LOC642148 expression fc,Refseq XR_019607.1,0.1352
same,LOC650236 expression fc,Refseq XR_036872.1,−0.05945
same,LOC100134322 expression fc,Refseq XR_037416.1,0.1962
same,LOC730974 expression fc,Refseq XR_037751.1,0.02384
same,LOC643445 expression fc,Refseq XR_038080.1,0.07882
same,LOC729516 expression fc,Refseq XR_038445.1,−0.00369
same,LOC340970 expression fc,Refseq XR_038494.1,0.03296
same,LOC645381 expression fc,Refseq XR_038557.1,−0.1266
same,LOC728429 expression fc,Refseq XR_038921.1,−0.02834
same,LOC645638 fc,Refseq XR_040455.1,−0.07113
same,LOC400464 expression fc,Refseq XR_041115.1,−0.07853
same,TRIM53 expression fc,Refseq XR_041244.1,0.07913
same,LOC729009 expression fc,"Refseq XR_042330.1, cultured human skeletal muscle",0.6634
same,ABCC3 expression fc,cultured human skeletal muscle,0.1349
same,ADM expression fc,cultured human skeletal muscle,0.6367
same,AGTRAP expression fc,cultured human skeletal muscle,0.6152
same,AHNAK expression fc,cultured human skeletal muscle,0.163
same,ANGPTL2 expression fc,cultured human skeletal muscle,−0.7837
same,ANKFY1 expression fc,cultured human skeletal muscle,0.09409
same,APOL3 expression fc,cultured human skeletal muscle,0.9777
same,ARHGEF19 expression fc,cultured human skeletal muscle,0.1103
same,ARID3A expression fc,cultured human skeletal muscle,0.2867
same,ASNS expression fc,cultured human skeletal muscle,0.7133
same,ATF5 expression fc,cultured human skeletal muscle,0.5025
same,ATL3 expression fc,cultured human skeletal muscle,1.352
same,BHLHB2 expression fc,cultured human skeletal muscle,0.6222
same,BTG2 expression fc,cultured human skeletal muscle,−0.1242
same,BTN3A2 expression fc,cultured human skeletal muscle,0.3356
same,BTN3A3 expression fc,cultured human skeletal muscle,0.4019
same,C1RL expression fc,cultured human skeletal muscle,−0.1589
same,C4orf18 expression fc,cultured human skeletal muscle,−0.5109
same,C8orf13 expression fc,cultured human skeletal muscle,0.4235
same,C14orf4 expression fc,cultured human skeletal muscle,0.05349
same,C18orf56 expression fc,cultured human skeletal muscle,0.2126
same,CA9 expression fc,cultured human skeletal muscle,0.5237
same,CABC1 expression fc,cultured human skeletal muscle,−0.1757
same,CABYR expression fc,cultured human skeletal muscle,−0.04313
same,CCDC8 expression fc,cultured human skeletal muscle,−0.09225
same,CEBPD expression fc,cultured human skeletal muscle,0.1596
same,CLDN15 expression fc,cultured human skeletal muscle,−0.3718
same,CNTNAP1 expression fc,cultured human skeletal muscle,0.1486
same,COL8A1 expression fc,cultured human skeletal muscle,0.469
same,CRISPLD2 expression fc,cultured human skeletal muscle,−0.45
same,CSF3 expression fc,cultured human skeletal muscle,0.8126
same,CYGB expression fc,cultured human skeletal muscle,0.157
same,CYP26B1 expression fc,cultured human skeletal muscle,0.4149
same,CYP27A1 expression fc,cultured human skeletal muscle,−0.0598
same,DAB2 expression fc,cultured human skeletal muscle,0.1092
same,DCN expression fc,cultured human skeletal muscle,0.2641
same,DDB2 expression fc,cultured human skeletal muscle,0.1073
same,DDIT4 expression fc,cultured human skeletal muscle,0.346
same,DDX60L expression fc,cultured human skeletal muscle,0.6578
same,DKFZp451A211 expression fc,cultured human skeletal muscle,0.3087
same,DNAJB2 expression fc,cultured human skeletal muscle,−0.01635
same,DUSP10 expression fc,cultured human skeletal muscle,−0.3659
same,ERAP2 expression fc,cultured human skeletal muscle,0.7658
same,ESPNL expression fc,cultured human skeletal muscle,−0.2957
same,FADS1 expression fc,cultured human skeletal muscle,0.4186
same,FAM110B expression fc,cultured human skeletal muscle,−0.7651
same,FAM175A expression fc,cultured human skeletal muscle,0.2667
same,FHL2 expression fc,cultured human skeletal muscle,−0.08794
same,FILIP1L expression fc,cultured human skeletal muscle,0.06528
same,FKBP5 expression fc,cultured human skeletal muscle,−0.1027
same,FOXQ1 expression fc,cultured human skeletal muscle,0.6403
same,FPR1 expression fc,cultured human skeletal muscle,0.9327
same,FST expression fc,cultured human skeletal muscle,0.9107
same,FUCA1 expression fc,cultured human skeletal muscle,0.2909
same,GALK1 expression fc,cultured human skeletal muscle,−0.5288
same,GALNTL2 expression fc,cultured human skeletal muscle,0.9881
same,GAS1 expression fc,cultured human skeletal muscle,0.007049
same,GBP4 expression fc,cultured human skeletal muscle,2.337
same,GFPT2 expression fc,cultured human skeletal muscle,0.04945
same,GPX8 expression fc,cultured human skeletal muscle,−0.3321
same,GRINA expression fc,cultured human skeletal muscle,0.4683
same,GSDMD expression fc,cultured human skeletal muscle,0.5738
same,HAS2 expression fc,cultured human skeletal muscle,0.691
same,HCG4 expression fc,cultured human skeletal muscle,0.6838
same,HES4 expression fc,cultured human skeletal muscle,1.068
same,HLA-C expression fc,cultured human skeletal muscle,0.6015
same,HLA-H expression fc,cultured human skeletal muscle,0.327
same,HOXC6 expression fc,cultured human skeletal muscle,−0.1927
same,ID3 expression fc,cultured human skeletal muscle,−0.07117
same,IDH3B expression fc,cultured human skeletal muscle,0.07117
same,IFIT5 expression fc,cultured human skeletal muscle,−0.2831
same,IFITM2 expression fc,cultured human skeletal muscle,0.006726
same,IGFBP5 expression fc,cultured human skeletal muscle,0.178
same,IHPK3 expression fc,cultured human skeletal muscle,−0.09089
same,IL32 expression fc,cultured human skeletal muscle,0.06112
same,IMPA2 expression fc,cultured human skeletal muscle,−0.3411
same,IRAK2 expression fc,cultured human skeletal muscle,0.5116
same,IRAK3 expression fc,cultured human skeletal muscle,1.053
same,ISCU expression fc,cultured human skeletal muscle,0.03975
same,ITPRIP expression fc,cultured human skeletal muscle,0.5516
same,KIAA1618 expression fc,cultured human skeletal muscle,−0.2961
same,KLF6 expression fc,cultured human skeletal muscle,0.6419
same,KRT17 expression fc,cultured human skeletal muscle,0.4585
same,LAP3 expression fc,cultured human skeletal muscle,1.402
same,LIMA1 expression fc,cultured human skeletal muscle,0.2565
same,LOC387763 expression fc,cultured human skeletal muscle,0.2048
same,LOC389386 expression fc,cultured human skeletal muscle,1.37
same,LOC392437 expression fc,cultured human skeletal muscle,0.113
same,LOC653879 expression fc,cultured human skeletal muscle,0.3261
same,LOC728431 expression fc,cultured human skeletal muscle,0.4549
same,MAMDC2 expression fc,cultured human skeletal muscle,−0.02851
same,MAOA expression fc,cultured human skeletal muscle,−0.3759
same,MCEE expression fc,cultured human skeletal muscle,−0.341
same,MGC16121 expression fc,cultured human skeletal muscle,0.01304
same,MIOS expression fc,cultured human skeletal muscle,0.1238
same,MLPH expression fc,cultured human skeletal muscle,0.4233
same,MMP3 expression fc,cultured human skeletal muscle,0.2839
same,MOCOS expression fc,cultured human skeletal muscle,0.4177
same,MOV10 expression fc,cultured human skeletal muscle,0.6869
same,MSC expression fc,cultured human skeletal muscle,0.2529
same,MSI2 expression fc,cultured human skeletal muscle,1.327
same,MT1A expression fc,cultured human skeletal muscle,−0.1212
same,MT2A expression fc,cultured human skeletal muscle,0.08469
same,MUC1 expression fc,cultured human skeletal muscle,0.3508
